Test results as given in US10487318.
Where a chain is given by its changes, count along the chain named. In names and notes the source's numbering stands.

T1: 33mer peptide (LQLQPFPQPQLPYPQPQLPYPQPQLPYPQPQPF)
T1 chain: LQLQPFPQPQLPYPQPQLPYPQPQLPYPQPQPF

T2: fluorescently quenched α-gliadin hexapeptide analogue QXL520-PQPQLP-K(5-FAM)-NH2
T2 chain: PQPQLP

B1: Homologue 13 (NCBI YP_004348568) (protein)
chain: MARHLHAGSEPKVITESKCIGACDPAERIHVTVMLRREGEQALDALVDKLASGDPAAKPVSREDFAKRFGARADDIQHTEAFAKRHQLTVERVDPVQSVVELAGTIAQFENAFGVKLEKYEHHAIGSFRARTGAIALPDELHDAVTAVLGLDTRPQAHPHFRFRPPFQPARSGAGTSYTPLQLASIYNFPEGDGAGQCIALVELGGGYRAADIRQYFEQLGVKPPKLVDVSVNGGRNAPTDDPNGPDGEVALDIEVAGAIAPGATIAVYFAGNSDAGFIQSVNQAIHDSTNRPSVVSISWGGPEASWTQQSITAFNNVLKTAASLGVTVCAASGDSGSSDGLQDGSNHVDFPASSPYVLACGGTTLDAQAGQGIRREVVWNDEAASGGAGGGGVSAVFPAPSYQKGLSAKATGGGSTPLSQRGVPDVAGDASPTTGYIISIAGTTAVLGGTSAVAPLWAALIARINANGKSPVGWANPKLYAQPGAFHDITQGNNGAFAASEGWDACTGLGSPDGAKVAAALQGASGGSQQGRATGA
B2: Kumamolysin-As N291D, Q361D (protein)
chain: MSDMEKPWKEGEEARAVLQGHARAQAPQAVDKGPVAGDERMAVTVVLRRQRAGELAAHVERQAAIAPHAREHLKREAFAASHGASLDDFAELRRFADAHGLALDRANVAAGTAVLSGPVDAINRAFGVELRHFDHPDGSYRSYLGEVTVPASIAPMIEAVLGLDTRPVARPHFRMQRRAEGGFEARSQAAAPTAYTPLDVAQAYQFPEGLDGQGQCIAIIELGGGYDEASLAQYFASLGVPAPQVVSVSVDGASNQPTGDPSGPDGEVELDIEVAGALAPGAKFAVYFAPDTDAGFLDAITTAIHDPTLKPSVVSISWGGPEDSWTSAAIAAMNRAFLDAAALGVTVLAAAGDSGSTDGEDDGLYHVDFPAASPYVLACGGTRLVASGGRIAQETVWNDGPDGGATGGGVSRIFPLPAWQEHANVPPSANPGASSGRGVPDLAGNADPATGYEVVIDGEATVIGGTSAVAPLFAALVARINQKLGKAVGYLNPTLYQLPADVFHDITEGNNDIANRAQIYQAGPGWDPCTGLGSPIGVRLLQALLPSASQPQPGSTENLYFQSGALEHHHHHH
B3: Kumamolysin-As D358G, D368H (protein)
chain: B2 chain with D291N, D358G, D361Q, D368H
B4: Kumamolysin-As N291D (protein)
chain: B2 chain with D361Q
B5: Kumamolysin-As N291D, G319S, D358G, D368H (protein)
chain: B2 chain with G319S, D358G, D361Q, D368H
B6: Kumamolysin-As N291D, D293A, Q361D, D358N (protein)
chain: B2 chain with D293A, D358N
B7: Kumamolysin-As G319S, D368S (protein)
chain: B2 chain with D291N, G319S, D361Q, D368S
B8: Kumamolysin-As N291D, D293A, G319S, D358G, Q361D, D368H (protein)
chain: B2 chain with D293A, G319S, D358G, D368H
B9: Kumamolysin-As N291D, D293A (protein)
chain: B2 chain with D293A, D361Q
B10: Kumamolysin-As D293T, N291D, G319S, D358G, D368H (protein)
chain: B2 chain with D293T, G319S, D358G, D361Q, D368H
B11: Kumamolysin-As S262K, D293N, N291D, G319S, D358G, D368H (protein)
chain: B2 chain with S262K, D293N, G319S, D358G, D361Q, D368H
B12: Kumamolysin-As N291D, G319S, S354N, D358G, D368H (protein)
chain: B2 chain with G319S, S354N, D358G, D361Q, D368H
B13: Kumamolysin-As D358N (protein)
chain: B2 chain with D291N, D358N, D361Q
B14: Kumamolysin-As S354N, D358G, D368H (protein)
chain: B2 chain with D291N, S354N, D358G, D361Q, D368H
B15: Kumamolysin-As D358G (protein)
chain: B2 chain with D291N, D358G, D361Q
B16: Kumamolysin-As G319S, D358G, D368H (protein)
chain: B2 chain with D291N, G319S, D358G, D361Q, D368H
B17: Kumamolysin-As N291D, D293A, D358N (protein)
chain: B2 chain with D293A, D358N, D361Q
B18: Kumamolysin-As S262G, T292S, N291D, G319S, D358G, D368H (protein)
chain: B2 chain with S262G, T292S, G319S, D358G, D361Q, D368H
B19: Kumamolysin-As T357A (protein)
chain: B2 chain with D291N, T357A, D361Q
B20: Kumamolysin-As D293A (protein)
chain: B2 chain with D291N, D293A, D361Q
B21: Kumamolysin-As N291D, Q361D, D358G (protein)
chain: B2 chain with D358G
B22: Kumamolysin-As T292S, N291D, G319S, D358G, D368H (protein)
chain: B2 chain with T292S, G319S, D358G, D361Q, D368H
B23: Kumamolysin-As N291D, G319S, S354N, D358G, Q361D, D368H (protein)
chain: B2 chain with G319S, S354N, D358G, D368H
B24: Kumamolysin-As G319S, S354N, D358G, D368H (protein)
chain: B2 chain with D291N, G319S, S354N, D358G, D361Q, D368H
B25: Kumamolysin-As N291D, G319S, D358G, Q361D, D368H (protein)
chain: B2 chain with G319S, D358G, D368H
B26: Kumamolysin-As N291D, D293A, G319S, S354N, D358G, Q361D, D368H (protein)
chain: B2 chain with D293A, G319S, S354N, D358G, D368H
B27: Kumamolysin-As N291D, D293A, D358G, Q361D (protein)
chain: B2 chain with D293A, D358G
B28: Kumamolysin-As N291D, D358N (protein)
chain: B2 chain with D358N, D361Q
B29: Kumamolysin-As V119D, S262K, D293T, N291D, G319S, D358G, D368H (protein)
chain: B2 chain with V119D, S262K, D293T, G319S, D358G, D361Q, D368H

Biological target: T1, 33mer peptide …

For B1, the “Degradation pattern of 33mer (60 min)” value was “Max-like”.

In the case of B1, the “activity against the 33mer peptide” value is reported as “demonstrated significant activity against the 33mer peptide”.

Biological target: T2, fluorescently quenched α-gliadin …

Going from B2 to B3, the Fold Change in Activity of PQ Hydrolysis Relative to Wild Type Kumamolysin-As falls from 7.5 fold to 6 fold.

Going from B4 to B5, the Fold Change in Activity of PQ Hydrolysis Relative to Wild Type Kumamolysin-As rises from 10 fold to 93 fold.

Compared with B6, B7 is lower in Fold Change in Activity of PQ Hydrolysis Relative to Wild Type Kumamolysin-As: 14.8 fold for the first, 2 fold for the second.

Compared with B8, B9 is lower in Fold Change in Activity of PQ Hydrolysis Relative to Wild Type Kumamolysin-As: 40.9 fold for the first, 15 fold for the second.

First: B10
Second: B11
The Fold Change in Activity of PQ Hydrolysis Relative to Wild Type Kumamolysin-As of the first is lower: 58 fold for the first, 62 fold for the second.

Compared with B12, B13 is lower in Fold Change in Activity of PQ Hydrolysis Relative to Wild Type Kumamolysin-As: 54.6 fold for the first, 4 fold for the second.

Going from B14 to B15, the Fold Change in Activity of PQ Hydrolysis Relative to Wild Type Kumamolysin-As falls from 9 fold to 3 fold.

First: B16
Second: B17
The Fold Change in Activity of PQ Hydrolysis Relative to Wild Type Kumamolysin-As of the first is lower: 7 fold for the first, 24 fold for the second.

First: B18
Second: B19
The Fold Change in Activity of PQ Hydrolysis Relative to Wild Type Kumamolysin-As of the first is higher: 29 fold for the first, 2 fold for the second.

Going from B20 to B21, the Fold Change in Activity of PQ Hydrolysis Relative to Wild Type Kumamolysin-As rises from 3 fold to 20 fold.

First: B22
Second: B23
The Fold Change in Activity of PQ Hydrolysis Relative to Wild Type Kumamolysin-As of the first is lower: 49 fold for the first, 50 fold for the second.

Compared with B24, B25 is higher in Fold Change in Activity of PQ Hydrolysis Relative to Wild Type Kumamolysin-As: 5 fold for the first, 23.1 fold for the second.

First: B26
Second: B27
The Fold Change in Activity of PQ Hydrolysis Relative to Wild Type Kumamolysin-As of the first is higher: 58 fold for the first, 15 fold for the second.

First: B28
Second: B29
The Fold Change in Activity of PQ Hydrolysis Relative to Wild Type Kumamolysin-As of the first is lower: 18.9 fold for the first, 120 fold for the second.
